Experimental data taken from patent publication US11753455B2, “Compounds for treatment of obesity” (Novo Nordisk A/S, priority 2018, dated 2023).

Test system: brain regions of mice (C57BL/6J)
Assay: In vivo imaging of fluorescently labelled GLP-1 Fab fusion proteins in brain (LSFM)
Conditions: single i.v. dose 120 nmol/kg, 6 hours
Protocol: The two fusion proteins include one and the same GLP-1 receptor agonist compound but differ in the Fab part. […] The study is an acute study in mice.
The mice were anesthetised with isoflurane 6 hours (“6H”) following administration of compound and euthanised by transcardiac perfusion with 10 ml heparinised (10 U/ml) saline followed by 10 ml 10% neutral buffered formalin (NBF). Brains were removed and immersed into 10% NBF and stored at 4° C. O/N until further processed.
The brains were dehydrated and saturated in dibenzyl ether (DBE) to minimise scattering of light during scanning by removal of water, and by matching of the refractive index. Brain tissue was dehydrated at room temperature in graded tetrahydrofuran (THF) diluted in demineralised H2O (w/v) 50/80/96/99%/2×100% 6-12 hours for each step. The brains were then cleared at room temperature in 3×DBE for 6-12 hours each step.
Brain samples were scanned using an UltraMicroscope II LSFM system (Lavision Biotec, Bielefeld, Germany) in 10.32 μm isotropic resolution. Data acquisition was performed using a 620/60 nm excitation filter and 680/30 nm emission filter for imaging autofluorescence, and a 710/75 nm excitation filter and 780/40 nm emission filter for imaging specific signals.
Images are single plane images of a z plane (2D). Spectral unmixing was performed to minimise the contribution of tissue auto-fluorescence in the images of the specific signals presented. The unmixing was carried out in Imaris (Release 7.6.5, Zurich, Switzerland) on imported tiff-files. The estimated auto-fluorescence contribution in the specific channel was calculated and removed based on ratios of voxel intensities between selected voxels in the unspecific recording and the corresponding voxels in the specific channel. A ratio was computed for 40 sets of voxels selected based on the histogram of the unspecific recording. The unmixing algorithm was written in Matlab (Release 2012b, Math Works, Natick, Massachusetts, United States) and applied as a XT-plugin in Imaris.
Images were registered to a common reference atlas space for visualisation and quantification using the Elastix software library version 4 (Klein, Stefan, et al. “Elastix: a toolbox for intensity-based medical image registration.” IEEE transactions on medical imaging 29.1 (2010): 196-205). A source image IS(x) was registered to the target atlas image IT(x) by finding a coordinate transformation T(x) that made IS(T(x)) spatially aligned with IT(x). […] Quantification was performed by summation of the unmixed intensity value of all voxels within the individual brain regions, indicating the total fluorescence signal from the compounds in these regions. […] The total signal thus indicates the total fluorescence signal from the compounds in these regions. […]

[1] = active vs inactive TfR compound

B1: Example 8: VivoTag750 fluorescence labelled GLP-1 anti TfR-Fab fusion protein of Example 6 (conjugate)
chain: HGEGTFTSDVSSYLEEQAAREFIAWLVKGRPGGGSGGGSGGGSGGGSDIQMTQSPASLSASLEEIVTITCQASQDIGNWLAWYQQKPGKSPQLLIYGATSLADGVPSRFSGSRSGTQFSLKISRVQVEDIGIYYCLQAYNTPWTFGGGTKLELKRADAAPTVSIFPPSSEQLTSGGASVVCFLNNFYPKDINVKWKIDGSERQNGVLNSWTDQDSKDSTYSMSSTLTLTKDEYERHNSYTCEATHKTSTSPIVKSFNRNECEVQLVESGGGLVQPGNSLTLSCVASGFTFSNYGMHWIRQAPKKGLEWIAMIYYDSSKMNYADTVKGRFTISRDNSKNTLYLEMNSLRSEDTAMYYCAVPTSHYVVDVWGQGVSVTVSSAKTTPPSVYPLAPGSAAQTNSMVTLGCLVKGYFPEPVTVTWNSGSLSSGVHTFPAVLQSDLYTLSSSVTVPSSTWPSETVTCNVAHPASSTKVDKKIVPRDCGHHHHHHHHHH
modifications: VivoTag750 fluorescent label; GLP-1 anti TfR-fab fusion protein; DISULFID (70)..(135); DISULFID (181)..(241); DISULFID (261)..(481); DISULFID (283)..(357); DISULFID (407)..(461)
For B1, the “total fluorescence signal in brain regions that do not express the GLP-1R (FIG. 16D)” value [1] was “slightly higher”, the “total fluorescence signal in circumventricular organs expressing the GLP-1R but devoid of a BBB (FIG. 16B)” value [1] was “slightly higher” and the “total fluorescence signal in brain regions expressing the GLP-1R (FIG. 16A)” value (compared to GLP-1-Inactive TfR) was “higher”. For the same molecule, the “total fluorescence signal in brain structures expressing the GLP-1R which are protected by the BBB (FIG. 16C)” value (compared to GLP-1-Inactive TfR) was “highly increased”.
